Key:
[1] = covalently linked oligomers by size exclusion HPLC (peak area %); assay type: physicochemical; conditions: for Covalently linked oligomers: 24 months at 2-8° C., 230 mM mannitol, 15 mM histidine, pH 7
Experimental: As shown in the examples, this amount of covalently bonded oligomers can be determined using size exclusion chromatography and determining the area under the peaks for monomeric GLP-2 analogue and oligomers respectively. This can be done using a Dionex Ultimate3000 HPLC system, giving a linear gradient, at a flow rate of 0.5 mL/min was used for the analysis. The mobile phase consisted of 0.1% TFA in 45% acetonitrile and 55% Milli-Q water. A wavelength of 215 nm was used for detection. This means that the formulations of the present invention generally contain the GLP-2 analogue at a concentration of about 2 mg/mL to about 30 mg/mL, more preferably at a concentration of about 15 mg/mL to about 25 mg/mL, and most preferably at a concentration of about 20 mg/mL. In some aspects of the present invention, it is preferred that the concentration of the GLP-2 analogue is selected so that the formulation contains 10% or less, more preferably 5% or less, more preferably 4% or less, more preferably 3% or less, and more preferably 2% or less of the GLP-2 analogue in the form of covalently bonded oligomeric products, preferably after 18 months storage. By way of illustration, the amount of covalently bonded oligomeric product may be in the range of between 2% to 5%, more preferably in the range of between 2% to 4%, and most preferably in the range of between 2% to 3%.
For detection of covalently linked oligomers, a Dionex Ultimate3000 HPLC system, giving a linear gradient, at a flow rate of 0.5 mL/min was used for the analysis. The mobile phase consisted of 0.1% TFA in 45% acetonitrile and 55% Milli-Q water. A wavelength of 215 nm was used for detection. The injection amount was 4 μg of peptide. The column used for the separation of the covalently formed peptides was a TSKgel SuperSW2000 (TSK BioScience) with a 4 μm particle size and dimensions of 300*4.6 mm. The overall runtime was 25 minutes. For chemical stability evaluation of the peptide monomer a C18 column with an acidic mobile phase and an acetonitrile gradient was used.
Stock solutions of mannitol (700 mM), L-histidine (200 mM) and ZP1848 peptide (acetate salt; 60 mg/mL) in water (Milli-Q) were prepared. Mannitol and histidine solutions were mixed in amounts appropriate to give 230 mM mannitol and 15 mM histidine. Peptide stock solution was added to a final concentration of 0.2, 2 and 20 mg/mL, respectively. Water was added up to 90% of final volume. If necessary, pH was adjusted to pH 7 using 1 M acetic acid/0.5 M L-arginine. Water was added up to the final volume.
The oligomers of ZP1848-acetate are well separated from the ZP1848-acetate monomer and are all integrated as one peak. The area percentage of the peaks was used to quantify the amount of oligomers, in particular covalently linked dimers and trimers. […]
(§1) Stock solutions of mannitol (700 mM), histidine (200 mM) and ZP1848 peptide solution (acetate salt; approx. 50 mg/mL) in Milli-Q water were prepared. Final concentration of peptide was 20 mg/mL, mannitol 230 mM, histidine 15 mM. Peptide stock solution was added to give the desired final peptide content. Water was added up to 90% of final volume. If necessary, pH was then adjusted to the desired formulation pH using 1 M acetic acid/0.5 M L-arginine. Water was added up to the final volume. Each formulation was filled in vials. Sample containers were visually inspected for clarity and viscosity and analysed for covalently linked oligomers by SEC, and peptide monomer stability by HPLC.

[2] = visual inspection for clarity and viscosity; assay type: physicochemical; conditions: 20 mg/mL; for Visual inspection Clear and non-viscous?: mannitol 230 mM, 24 hours at room temperature
Experimental: Stock solutions of mannitol (700 mM), phosphate buffer (200 mM) and ZP1848-acetate peptide (60.2 mg/mL) in water (Milli-Q) were prepared. Water was added up to 90% of final volume. If necessary, pH was then adjusted to the desired formulation pH using 1 M acetic acid/0.5 M L-arginine. Water was added up to the final volume. Sample containers were visually inspected for clarity and viscosity after 24 hours at room temperature.
Vials were visually inspected for clarity and viscosity. The viscosity was measured using a microVISC™ viscosimeter. The hydrodynamic radius was measured using a Wyatt DynaPro II Dynamic Light Scattering (DLS) Platereader. The sample size loaded on the plates was 170 μl. […]
as §1
Stock solutions of mannitol (700 mM), histidine (200 mM), and ZP1848 peptide solution (acetate salt; approx. 50 mg/mL) in Milli-Q water were prepared. Final concentration of peptide was 20 and 2 mg/mL, mannitol 230 mM, and histidine 15 mM. Water was added up to 90% of final volume. If necessary, pH was then adjusted to the desired formulation pH (7.0) using 1 M acetic acid/0.5 M L-arginine. Water was added up to the final volume. Each formulation was filled in vials. Sample containers were visually inspected for clarity and viscosity and analysed for peptide monomer stability by HPLC.

[3] = in vivo; cited from earlier work
[4] = viscosity measured with microVISC viscosimeter; assay type: physicochemical; conditions: 20 mg/ml ZP1848-acetate, pH 7, acetate 6-15% (FIG. 2)
Experimental: In the examples below, the viscosity of the liquid formulations of the present invention is shown to be dependent on the total acetate concentration. Preferably, the formulations have a viscosity between 0.8 and 2.0 mPa/sec as measured at 25° C. Conveniently, the viscosity may be measured by using microVISC™. In parallel, the hydrodynamic radius may be measured using a Dynamic Light Scattering, DLS, Platereader (Wyatt DynaPro II). Samples were prepared having a drug substance (DS) of the GLP-2analogue containing 6% acetate and to mimic DS having 7.8-15% acetate, then acetate was added. Data from manufacturing formulations having varied the acetate concentration from 6.7-15% is shown below in FIG. 2. The effect of controlling the total acetate concentration is that the injectability of formulations of the present invention can be modulated, for example by reducing the total acetate concentration to provide a less viscous formulation that may be more easily injected.
Samples were prepared using a drug substance (DS) of the GLP-2 analogue ZP1848-acetate containing 6% acetate. […]
Vials were visually inspected for clarity and viscosity. The viscosity was measured using a microVISC™ viscosimeter. The hydrodynamic radius was measured using a Wyatt DynaPro II Dynamic Light Scattering (DLS) Platereader. […]

H-HGEGTFSSELATILDALAARDFIAWLIATKITDKKKKKK-NH2 [ZP1848]
Covalently linked oligomers ([1]; 2 mg/mL): 1.91% | initial value of the amount of oligomer ([1]; initial, before storage): less than 0.1% | Visual inspection Clear and non-viscous? ([2]; pH 6.5, phosphate 20 mM): No | Visual inspection Clear and non-viscous? ([2]; pH 7.0, phosphate 20 mM): No | Visual inspection Clear and non-viscous? ([2]; pH 7.0, phosphate 50 mM): No | Visual inspection Clear and non-viscous? ([2]; pH 7.5, phosphate 20 mM): No

CC[C@H](C)[C@H](NC(=O)[C@H](Cc1ccccc1)NC(=O)[C@H](CC(=O)O)NC(=O)[C@H](CCCNC(=N)N)NC(=O)[C@H](C)NC(=O)[C@H](C)NC(=O)[C@H](CC(C)C)NC(=O)[C@H](CC(N)=O)NC(=O)[C@H](CC(=O)O)NC(=O)[C@H](CC(C)C)NC(=O)[C@@H](NC(=O)[C@@H](NC(=O)[C@H](CC(N)=O)NC(=O)[C@H](CCSC)NC(=O)[C@H](CCC(=O)O)NC(=O)[C@H](CC(=O)O)NC(=O)[C@H](CO)NC(=O)[C@H](Cc1ccccc1)NC(=O)[C@H](CO)NC(=O)CNC(=O)[C@H](CC(=O)O)NC(=O)CNC(=O)[C@@H](N)Cc1c[nH]cn1)[C@@H](C)O)[C@@H](C)CC)C(=O)N[C@@H](CC(N)=O)C(=O)N[C@@H](Cc1c[nH]c2ccccc12)C(=O)N[C@@H](CC(C)C)C(=O)N[C@H](C(=O)N[C@@H](CCC(N)=O)C(=O)N[C@H](C(=O)N[C@@H](CCCCN)C(=O)N[C@H](C(=O)N[C@H](C(=O)N[C@@H](CC(=O)O)C(=O)O)[C@@H](C)O)[C@@H](C)CC)[C@@H](C)O)[C@@H](C)CC [teduglutide]
half-life [3]: about two

(H-HGEGTFSSELATILDALAARDFIAWLIATKITDKKKKKK-NH2), x(CH3COOH) (also: acetate salt) [ZP1848-acetate]
Covalently linked oligomers ([1]; 0.2 mg/mL): 2.60% | formation of covalent oligomers, increase per week ([1]; 2 mg/mL, 3 weeks at 40° C.): 0.27% | formation of covalent oligomers ([1]; 2 mg/mL, after 3 weeks at 40° C.): 1.2% | formation of covalent oligomers, increase per week ([1]; 20 mg/mL, 3 weeks at 40° C.): 0.21% | Covalently linked oligomers ([1]; 20 mg/mL): 1.35% | formation of covalent oligomers ([1]; 20 mg/mL, after 3 weeks at 40° C.): 0.9% | concentration dependence for oligomer formation ([1]; long term storage at 2-8° C.): inversely dependent on increasing concentration of the GLP-2 analogue | formation of covalent oligomers ([1]; sorbitol, 3 weeks at 40° C.): 1.1% | Visual inspection ([2]; pH 6.5-7.5, 20-50 mM phosphate buffer, 24 hrs at room temperature): turbid and/or highly viscous | viscosity as a function of acetate concentration [4]: increases in a non-linear manner at higher acetate concentration
